Target: FLAG-Sur1 (UniProt Q09427)
Assay: FRET or BRET

UniProt Q09427, sequence (Q09427 whole entry): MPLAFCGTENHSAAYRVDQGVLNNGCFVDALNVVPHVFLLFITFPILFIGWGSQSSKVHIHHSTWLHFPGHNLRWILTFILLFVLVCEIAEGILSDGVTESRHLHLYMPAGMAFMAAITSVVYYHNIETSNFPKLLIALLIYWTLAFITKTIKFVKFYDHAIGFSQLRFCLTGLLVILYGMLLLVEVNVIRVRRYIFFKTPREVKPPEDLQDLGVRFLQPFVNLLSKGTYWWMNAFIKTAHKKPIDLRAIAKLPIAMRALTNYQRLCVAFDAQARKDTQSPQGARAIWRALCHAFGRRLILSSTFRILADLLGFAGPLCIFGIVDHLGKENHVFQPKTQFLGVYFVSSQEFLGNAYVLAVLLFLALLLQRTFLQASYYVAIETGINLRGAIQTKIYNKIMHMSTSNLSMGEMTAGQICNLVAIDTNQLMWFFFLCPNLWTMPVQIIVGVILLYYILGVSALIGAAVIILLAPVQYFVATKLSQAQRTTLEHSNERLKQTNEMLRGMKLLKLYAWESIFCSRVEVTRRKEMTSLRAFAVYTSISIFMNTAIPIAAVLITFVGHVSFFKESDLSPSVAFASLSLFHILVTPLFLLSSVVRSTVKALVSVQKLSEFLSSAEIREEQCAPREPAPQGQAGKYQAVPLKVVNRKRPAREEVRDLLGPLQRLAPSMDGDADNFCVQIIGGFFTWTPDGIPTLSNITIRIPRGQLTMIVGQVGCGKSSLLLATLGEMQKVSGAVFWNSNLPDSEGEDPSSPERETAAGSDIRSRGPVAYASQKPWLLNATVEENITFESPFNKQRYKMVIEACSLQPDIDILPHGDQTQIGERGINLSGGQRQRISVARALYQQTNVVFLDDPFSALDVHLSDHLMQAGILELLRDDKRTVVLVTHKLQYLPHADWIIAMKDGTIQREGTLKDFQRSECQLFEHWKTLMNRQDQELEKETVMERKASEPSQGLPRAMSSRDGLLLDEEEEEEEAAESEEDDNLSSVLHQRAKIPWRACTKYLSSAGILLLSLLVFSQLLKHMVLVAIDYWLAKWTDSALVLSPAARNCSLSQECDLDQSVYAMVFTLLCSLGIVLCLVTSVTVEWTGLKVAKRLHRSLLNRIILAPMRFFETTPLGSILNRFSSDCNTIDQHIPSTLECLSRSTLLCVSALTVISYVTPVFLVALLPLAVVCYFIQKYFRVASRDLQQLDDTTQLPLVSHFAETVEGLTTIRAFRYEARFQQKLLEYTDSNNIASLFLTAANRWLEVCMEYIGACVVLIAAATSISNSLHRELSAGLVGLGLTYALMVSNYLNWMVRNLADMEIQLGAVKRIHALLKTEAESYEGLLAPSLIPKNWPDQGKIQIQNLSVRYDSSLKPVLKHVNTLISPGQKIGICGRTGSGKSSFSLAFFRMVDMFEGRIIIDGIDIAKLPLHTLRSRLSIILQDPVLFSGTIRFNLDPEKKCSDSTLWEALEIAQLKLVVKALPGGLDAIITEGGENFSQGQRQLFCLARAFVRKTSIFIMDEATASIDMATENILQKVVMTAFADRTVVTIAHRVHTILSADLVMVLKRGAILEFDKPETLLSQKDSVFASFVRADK

Question: With “Myc-Trpm4 (from UniProt Q7TN37-1 1-1213) (natural protein)” as the substance, how does the FRET efficiency at steady state read?
Answer: 11%

— PMC3561583
